Assay results from article PMC2662861, “An unexpected phosphate binding site in Glyceraldehyde 3-Phosphate Dehydrogenase: Crystal structures of apo, holo and ternary complex of Cryptosporidium parvum enzyme” (BMC Structural Biology, 2009).

Substrate: O=C[C@H](O)COP(=O)(O)O
Assay: purified protein
Type: biochemical, Cryptosporidium parvum
Details: 150 μM NAD, 50 mM triethanolamine, 50 mM Na2HPO4, 0.2 mM EDTA, pH 8.8, D-G3H 1.47-5.88 mM supplied as DL-G3H

B1: CpGAPDH (Cryptosporidium parvum glyceraldehyde 3-phosphate dehydrogenase) (Cryptosporidium parvum) (protein)
chain: MTATLGINGFGRIGRLVLRACMERNDITVVAINDPFMDVEYMAYLLKYDSVHGNFNGTVEVSGKDLCINGKVVKVFQAKDPAEIPWGASGAQIVCESTGVFTTEEKASLHLKGGAKKVIISAPPKDNVPMYVMGVNNTEYDPSKFNVISNASCTTNCLAPLAKIINDKFGIVEGLMTTVHSLTANQLTVDGPSKGGKDWRAGRCAGNNIIPASTGAAKAVGKVIPALNGKLTGMAIRVPTPDVSVVDLTCKLAKPASIEEIYQAVKEASNGPMKGIMGYTSDDVVSTDFIGCKYSSIFDKNACIALNDSFVKLISWYDNESGYSNRLVDLAVYVASRGL
notes: recombinant, N-terminal hexa-histidine tag kept, expressed in E. coli; homotetramer
Km: 762.7 ± 43.0 µM
